Laboratory results from patent US20050250690A1.

Target: OB-R (leptin receptor) expressed by rabbit endometrial cells (rEEC and rESC) (rabbit)
Assay: competition with 125I-human leptin for OB-R in rabbit endometrial cell lysates (rEEC and rESC), PEG precipitation

B1: LPA-2 (leptin peptide antagonist 2; residues 70-95 of helix III of the human leptin molecule) (peptide)
peptide: SRNVIQISNDLENLRDLLHVLAFSKS
Ki: 0.06 nM
